This is an account of results in the nanobody polyreactivity screen of Harvey et al. (2022).

A short description of the data set: yeast display, Sf9 membrane polyspecificity reagent, FACS + sequencing; frameworks hold sequencing errors. Put shortly: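 In a synthetic yeast display library (Saccharomyces cerevisiae BJ5465), nanobody expression was induced with galactose for 36–48 hours. FACS gates were set low and high (top ~1%) using anti-HA fluorescence for expression and streptavidin fluorescence for binding of the Sf9 membrane reagent. Each polyreactivity label is drawn from the gate of origin.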
On to “QVQLVDSGGGLVQAGGSLRLSCAASGRIFFPNGMGWYRQAPGKERELVATISRIGGSTYYADSVKGRFTISRDNAMNTVYLQRNSLKPEDTAVYYCAAQYSYGVYWTLPYGYNYWGQGTQVTVSS”, for which the “polyreactivity (PSR sort gate)” value is on record as “low polyreactivity”. For the sequence “QVQLVDSGGGLVQAGGSLRLSCAASGRIFGSYVMGWYRQAPGKERELVAAITDGGTTYADSVKGRFTISRDNAKNTVYLQMNSLKPEDTAVYYCAADLYDWPLAWWEYYYWGQGTHVTVSS”, the “polyreactivity (PSR sort gate)” value is “low polyreactivity”. The same measure for “QVQLVDSGGGLVQAGGSLRLSCAASGRIFPGKVMGWYRQAPGKERELVAAISSSGGSTYYADSVKGRFTISRDNAKNTVYLQMNSLKPEDTAVYYCAADSSDWPYDYWGQGTQVTVSS”: “low polyreactivity”; for “QVQLVDSGGGLVQAGGSLRLSCAASGRIFQPNAMGWYRQAPGKEMEFVAAISSSGGSTFYADSVKGRFTISRDNAKNTVYLQMNSLKPEDTAVYYCAKRYGYTEYYYWGQGTQVTVSS”: “high polyreactivity”; for “QVQLVDSGGGLVQAGGSLRLSCAASGRIFRGYAMGWYRQAPGKERELVAAINRGSSTYYADSVKGRFTISRDNAKNTVYLQMNSLKPEDTAVYYCAVKGYLPYTGIFDYWGQGTQVTVSS”: “high polyreactivity”.

As to “QVQLVDSGGGLVQAGGSLRLSCAASGRIFRLYAMGWYRPAPGKERELVATITRSGVSTYYADSVKGRFTISRDNAKNTVYLQMNSLKPEDTAVYYCAVDRWGRYYATQYTFDYWGQGTQVTVSS”, the “polyreactivity (PSR sort gate)” value is recorded as “high polyreactivity”. The same measure for “QVQLVDSGGGLVQAGGSLRLSCAASGRIFSVYAMGWYRQAPGNERELVAAITRVGSTNYADSVKGRFTISRDNAKNTVYLQMNSLKPEDTAVYYCAASKYGSLSGYWGQGTQVTVSS”: “high polyreactivity”; for “QVQLVDSGGGLVQAGGSLRLSCAASGRISNYYAMGWYRQAPGKERELVAAITRSGGSTYYADSVKGRFTISRDNAKNTVYLQMNSLKPEDTAVYYCATDWTVRYDYWGQGTQVTVSS”: “high polyreactivity”; for “QVQLVDSGGGLVQAGGSLRLSCAASGRLFDRNAMGWYRQGPGKERELVARIDPGDDTNYSYSVTGRFTISRDNAKNTVYLQMNSLKPEDTAVYYCATDPDYVLYRTAYYEYDYWGKGTQVTVSS”: “low polyreactivity”.

In the case of “QVQLVDSGGGLVQAGGSLRLSCAASGRTFATYAMGWNRQAPGKERELVAAISSGGSTYYADSVKGRFTISRDNAKNNVYLQMNRLKPDDTAVYYCAAEVWFPDRWMDYWGQGTQVTVSS”, the “polyreactivity (PSR sort gate)” value was “high polyreactivity”.

For “QVQLVDSGGGLVQAGGSLRLSCAASGRTFGAYDMGWYRQAPGKERELVAAISSGATTNYADSVKGRFTISRDNAKNTVYLQMNSLKPEDTAVYYCAASVYRYIYAFNYWGQGTQVTVSS”, the “polyreactivity (PSR sort gate)” value is reported as “low polyreactivity”.

As for “QVQLVDSGGGLVQAGGSLRLSCAASGRTFGVNAMGWYRQAPGKERELVAAISSGSSTYYADSVKGRFTISRDNAKNTVYLQMNSLKPEDTAVYYCAAKYWSYYQSRSLSYRYFYWGQGTQVTVSS”, the “polyreactivity (PSR sort gate)” value was “low polyreactivity”. The entry for “QVQLVDSGGGLVQAGGSLRLSCAASGRTFRHNAMGWYRQAPGKERELVATISNRGGTSYYADSVKGRFTISRDNANNTVYLQMNSLKPEDTAVYYCAARVGVLGYVRYGYWGHGTQVTVSS” is “low polyreactivity”; for “QVQLVDSGGGLVQAGGSLRLSCAASGRTFSSYAMGSYRQAPGKERELVAAINWSGASTYYADSVKGRFTISRDYAKNTVYLQLNSLKPEDTAVYDCAKSLYVGKFWQIRSSVDYWGQGTQVTVSS” it is “low polyreactivity”; for “QVQLVDSGGGLVQAGGSLRLSCAASGRTFTIYAIGWYRQAPGKEREFVASITGSDGSTYYADSVKGRFTISRDNAKNTVYLQMNSLKPEDTAVYYCAAATSSAYDYWGQGTQVTVSS” it is “low polyreactivity”.

On to “QVQLVDSGGGLVQAGGSLRLSCAASGRTFYAYAMGWYRQAPGKERELVATISSSDASTYYADSVKGRFTISRDNAKKTVYLLMNSLKPEDTAVYYGNADFVRPSWARGRNNGLYYWGQGTQVTVSS”, for which the “polyreactivity (PSR sort gate)” value was “low polyreactivity”.

On to “QVQLVDSGGGLVQAGGSLRLSCAASGRTFYWYTMGWYRQAPGKERELVAAISTRGVRTYYADSVKGRFTISRDNAKNTVYLQMNSLKPADTAVYYCNDEYNPTYYTSHDDSDYWGQGTLVTVSS”, for which the “polyreactivity (PSR sort gate)” value is “low polyreactivity”.

On to “QVQLVDSGGGLVQAGGSLRLSCAASGRTSIWNAMGWYRQAPGKERELVASISWSGGSTYYADSVKGRFTISRDNAKNTVYLQMNSLKPEDTAVYYCAKTGYFLVFNEHLHKKRYDSWGQGTQVTVSS”, for which the “polyreactivity (PSR sort gate)” value is listed as “low polyreactivity”.

As for “QVQLVDSGGGLVQAGGSLRLSCAASGRTSYENAMGWYREAPGKERELVAAINVSGGSTYYADSVKGRFTISRDNAKNTVYLQMNSLKPEDTAVYYCAADNPYADARSSWYEYNDWGQGTQVTVSS”, the “polyreactivity (PSR sort gate)” value is given as “high polyreactivity”. Regarding “QVQLVDSGGGLVQAGGSLRLSCAASGRTYDTNAMGWNRQAPRKETELVAVITARGGNTSYADSVKGRFTISRDNAKNTVYLQMNSLKPEDTAVYYCAALYFKVGYYTYEYWGQGTQVTVSS”, the “polyreactivity (PSR sort gate)” value was “low polyreactivity”. The same measure for “QVQLVDSGGGLVQAGGSLRLSCAASGRTYTYYAMGWYRQAPGKERELVAAISKSGGSTYYADSVKGRFTISRDNAKNTVYLQMNSLKPEDTAVYYFAKVYRYSSLYYYWGQGTQVTVSS”: “low polyreactivity”. For “QVQLVDSGGGLVQAGGSLRLSCAASGSIFDFYAMGWYRQAPGTERELVAAINSGGSTNYADSVKGRFTISRDNAKNTVYLQMNSLTPEDTAVYYCAARHPPYRGGYWGQGTQVTVSS”, the “polyreactivity (PSR sort gate)” value is on record as “low polyreactivity”. The entry for “QVQLVDSGGGLVQAGGSLRLSCAASGSIFEINAMGWYRQAPGKERELVAVITDSGSTYYEDSVKGRFTISRDNAKNTVDLQMNSLKPEDTAVYYCAAEYSLLFFLMDYWGQGTQVTVSS” is “low polyreactivity”; for “QVQLVDSGGGLVQAGGSLRLSCAASGSIFGQYTMGWYRQAPGKERELVAAINSSGDSTFYADSVKGRFTISRDNAKNTVYLQMNSLKPEDTAVYFCAADPYRYYFRAYGWHREGYYWGQGTQVTVSS” it is “low polyreactivity”; for “QVQLVDSGGGLVQAGGSLRLSCAASGSIFPPYAMGWYRQAPGKERELVAAITRSGGSTYYADSVKGRFTISRDNAKNTVYLQMNSLKPEDTAVYYCAARYPGGYGYWGQGTQVTVSS” it is “high polyreactivity”. In the case of “QVQLVDSGGGLVQAGGSLRLSCAASGSIFRYNDMGWYRQAPGKERELVATITSGTNTYYADSVKGRFTISRDNEKNTVYLQMNSLKPEDTAVYYCAAGYPSWYYGYPYDSWGQGTQVTVSS”, the “polyreactivity (PSR sort gate)” value is recorded as “low polyreactivity”. The entry for “QVQLVDSGGGLVQAGGSLRLSCAASGSIFRYYAMGWYRQAPGKEREFVAAINTNDAGTYYADSVKGRFTISRDNAKNTVYLQMNSLKPEDTAVYYCAADTGYPFWYDYWGQGTQVTVSS” is “high polyreactivity”; for “QVQLVDSGGGLVQAGGSLRLSCAASGSIFRYYAMGWYRQAPGKEREFVAAITYSGGSTHYADSVKGRFTISRDNEKNTVYLQMNSLKPEDTAVYYCAADYYWRVHYGYWGLGTQVTVSS” it is “high polyreactivity”. The same measure for “QVQLVDSGGGLVQAGGSLRLSCAASGSIFSFYAMGGSRQAPGKERELVAAIDGGGSTDYADSVKGRFTISRDHAKYTVYLQMNSLKPEDTAVYDCAARDIYHYDWGQGTQVTVSS”: “low polyreactivity”; for “QVQLVDSGGGLVQAGGSLRLSCAASGSIFVRYTMGWYRQAAGKERELVAGIRTNGSSTYYADSVKGRFTISRDNAKNTVYLQMNSLKPEDTAVYYCAARLYRYFRQYDYWGQGTQVTVSS”: “low polyreactivity”. “QVQLVDSGGGLVQAGGSLRLSCAASGSIFYPYAMGWYRQAPGKEREFVAGITTRGGSTYYADSVKGRFTISRDNAKNTVYLQMNSLKPEDTAVYYCAAYSSVWPNFGYWGQGTQVTVSS”: the “polyreactivity (PSR sort gate)” value is on record as “high polyreactivity”.

Take “QVQLVDSGGGLVQAGGSLRLSCAASGSIFYQYAMGWYRQAPGKQRELVAAISRSGGSTYYADSVKGRFTISRDNAKNTVYLQMISLKPEDTAVYYCAARAVRAAYDYWGLGTQVTVSS”: the “polyreactivity (PSR sort gate)” value is “low polyreactivity”. The same measure for “QVQLVDSGGGLVQAGGSLRLSCAASGSIFYTNAMGWYRQAPGKERELVAAISYGGTTTYADSVKGRFTISRDNAKNTVYLQMNSLKPEDTAVYYCNADWLYYGYWGYGHIWYDYWGQGTQVTVSS”: “low polyreactivity”.

As to “QVQLVDSGGGLVQAGGSLRLSCAASGSIFYYYAMVWYRQAPGKERELVAAISRNGGSTSYADSVKGRFTISRDNAKNTVYLQMNSLKPEDTAVYYCAVRKFHYFRYEYWGQGTQVTVSS”, the “polyreactivity (PSR sort gate)” value is listed as “low polyreactivity”.

As for “QVQLVDSGGGLVQAGGSLRLSCAASGSILAGNVMGWYRQAPGKERELVASITFRGSRTYYADSVKGRFTISRDNAKNTVYLQMNSLKPEDTAVYYCNADVWASGSRGEGYWGQGTQVTVSS”, the “polyreactivity (PSR sort gate)” value is “low polyreactivity”. On to “QVQLVDSGGGLVQAGGSLRLSCAASGSILAINTMGWYRPAPGKEREFVAAISAGGTSTYYADSVKGRFTISRDNAKNTVSLQMNSLKPEDTAVYYCAAIFIIYRTGYRRYYWGQGTQVTVSS”, for which the “polyreactivity (PSR sort gate)” value is “high polyreactivity”.

For the sequence “QVQLVDSGGGLVQAGGSLRLSCAASGSILYPYAMGWDRQAPGKEREFVAAITYGGGRTYYADSVKGRFTISRDNAKNTVYLQMNSLKPEDTAVYYCAAKSVYAGRRRIYYLWYDYWGQGTQVTVSS”, the “polyreactivity (PSR sort gate)” value is listed as “high polyreactivity”. In the case of “QVQLVDSGGGLVQAGGSLRLSCAASGSIYGFYAMGWYRQAPGKERELVATIRTSGGNTYYADSVKGRFTISRDNAKNTVYLQLKSMKPEDTAVYYCAAAGYLYSGDVHYLYTYEYWGQRTQVTVSS”, the “polyreactivity (PSR sort gate)” value is recorded as “low polyreactivity”. Turning to “QVQLVDSGGGLVQAGGSLRLSCAASGSTFDGNTMGWYRQAPGKERELVATITNSGGNTYYADSVKGRFTISRDNAKNTVYLQMNSLKPEDTAVYYCNARRTSWRRLGNFYYWGQGTQVTVSS”, the “polyreactivity (PSR sort gate)” value is listed as “high polyreactivity”.

For the sequence “QVQLVDSGGGLVQAGGSLRLSCAASGSTFITNTMGWDRQSPGKDRELVAAISQSGTRTYYANSVKGRFTISRDNAKNTVYLQMNSLKPEDTAVYYCAADRQRYTSSSRKGLGYCGQGTQVTVSS”, the “polyreactivity (PSR sort gate)” value is “high polyreactivity”.
